Consider 6 molecules from patent US20090068103, “APTAMERS LABELED WITH 68GA” (published 2009).

This series addresses Tenascin-C (TN-C) (Homo sapiens, UniProt P24821 P24821:23-2201). Kind of series: competition; filter competition vs 1 nM 99mTc-TTA1-MAG2, 2 nM TN-C; TBSMC pH 7.4, 1 mM CaCl2, 1 mM MgCl2, 37 C. To be noted: tags: none stated; chain copies: 6. On the procedure: A competition filter binding assay was carried out in order to determine binding constants (EC₅₀). Samples of 2 nM human TN-C were incubated with 1 nM ^99mTc-TTA1-MAG₂ in TBSMC buffer (20 mM Tris, pH 7.4; 137 mM NaCl; 1 mM CaCl₂; 1 mM MgCl₂) and the binding competed with varying concentrations of unlabeled aptamer (see pipetting scheme in FIG. 9.1). Incubation was carried out at 37° C. for 15 min. Subsequently, the solutions were pipetted on a Minifold Device equipped with a supported nitrocellulose membrane and Whatman filter paper and were washed with buffer using vacuum. Residual radioactivity on the filter due to tenascin-C bound labeled aptamer was quantified using a Phosphorimager. EC₅₀ values were calculated using GraphPadPrism 3.02 (San Diego, Calif., USA) plotting one-side competition non-linear regression curves.

Chain of Tenascin-C (TN-C) (P24821 23-2201, one chain of several): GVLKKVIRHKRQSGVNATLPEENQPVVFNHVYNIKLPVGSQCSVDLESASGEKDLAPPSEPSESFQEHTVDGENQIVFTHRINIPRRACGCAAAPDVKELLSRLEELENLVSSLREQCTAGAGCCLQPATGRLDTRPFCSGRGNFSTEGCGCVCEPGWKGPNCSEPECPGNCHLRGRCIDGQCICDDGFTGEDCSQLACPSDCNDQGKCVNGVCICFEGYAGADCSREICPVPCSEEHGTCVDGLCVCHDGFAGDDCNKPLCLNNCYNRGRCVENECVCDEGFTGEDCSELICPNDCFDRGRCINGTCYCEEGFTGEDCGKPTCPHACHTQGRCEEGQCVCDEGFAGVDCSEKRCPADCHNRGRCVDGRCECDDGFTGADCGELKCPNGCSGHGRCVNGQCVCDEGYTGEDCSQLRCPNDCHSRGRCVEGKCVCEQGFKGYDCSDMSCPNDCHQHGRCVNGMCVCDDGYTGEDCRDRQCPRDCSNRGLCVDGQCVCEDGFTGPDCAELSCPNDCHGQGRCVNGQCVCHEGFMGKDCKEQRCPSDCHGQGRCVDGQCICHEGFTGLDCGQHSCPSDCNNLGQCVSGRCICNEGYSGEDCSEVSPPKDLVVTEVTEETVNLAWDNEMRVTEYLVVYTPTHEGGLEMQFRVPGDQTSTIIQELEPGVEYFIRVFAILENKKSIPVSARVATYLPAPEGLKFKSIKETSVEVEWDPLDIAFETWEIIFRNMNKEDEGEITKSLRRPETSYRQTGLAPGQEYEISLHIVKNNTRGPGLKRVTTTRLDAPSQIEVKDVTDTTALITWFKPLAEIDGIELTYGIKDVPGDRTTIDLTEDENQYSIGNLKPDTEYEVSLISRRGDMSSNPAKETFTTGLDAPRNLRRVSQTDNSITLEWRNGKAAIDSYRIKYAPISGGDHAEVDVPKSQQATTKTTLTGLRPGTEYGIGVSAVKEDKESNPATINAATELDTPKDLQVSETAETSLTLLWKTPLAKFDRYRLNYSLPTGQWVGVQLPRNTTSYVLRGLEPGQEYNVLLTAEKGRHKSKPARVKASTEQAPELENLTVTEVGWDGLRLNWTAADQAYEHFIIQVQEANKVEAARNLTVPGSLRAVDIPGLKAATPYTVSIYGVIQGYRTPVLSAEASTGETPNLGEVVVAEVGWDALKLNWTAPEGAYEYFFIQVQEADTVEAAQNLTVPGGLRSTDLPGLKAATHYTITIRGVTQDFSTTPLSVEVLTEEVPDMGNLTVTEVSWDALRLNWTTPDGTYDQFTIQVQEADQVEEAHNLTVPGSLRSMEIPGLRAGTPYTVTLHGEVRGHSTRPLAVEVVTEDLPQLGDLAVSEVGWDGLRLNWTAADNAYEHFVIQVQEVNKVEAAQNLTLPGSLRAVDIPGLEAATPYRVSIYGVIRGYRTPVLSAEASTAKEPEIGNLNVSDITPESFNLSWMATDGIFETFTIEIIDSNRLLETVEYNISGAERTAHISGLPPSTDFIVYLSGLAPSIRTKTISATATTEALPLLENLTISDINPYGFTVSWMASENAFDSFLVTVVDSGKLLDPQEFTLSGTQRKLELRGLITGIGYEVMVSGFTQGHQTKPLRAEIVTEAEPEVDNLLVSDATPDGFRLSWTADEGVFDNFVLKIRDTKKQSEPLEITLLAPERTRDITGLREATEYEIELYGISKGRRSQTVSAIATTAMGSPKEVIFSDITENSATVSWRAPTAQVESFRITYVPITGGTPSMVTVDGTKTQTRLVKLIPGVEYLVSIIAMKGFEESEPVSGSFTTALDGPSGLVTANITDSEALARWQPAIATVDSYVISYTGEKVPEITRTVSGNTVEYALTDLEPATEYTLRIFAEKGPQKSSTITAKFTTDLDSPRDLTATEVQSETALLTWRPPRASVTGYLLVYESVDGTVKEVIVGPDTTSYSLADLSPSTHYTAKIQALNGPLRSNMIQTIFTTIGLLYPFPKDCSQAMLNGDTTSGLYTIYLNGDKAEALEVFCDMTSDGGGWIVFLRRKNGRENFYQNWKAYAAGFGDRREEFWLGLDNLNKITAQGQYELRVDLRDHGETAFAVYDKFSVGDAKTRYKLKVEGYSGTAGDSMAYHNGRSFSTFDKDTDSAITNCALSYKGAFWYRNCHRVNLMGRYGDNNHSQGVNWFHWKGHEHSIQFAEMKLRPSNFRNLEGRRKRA

B1: TTA5 (ssRNA)
RNA: TAGGGAGGACGCGUCGCCGUAAUGGAUGUUUUGCUCCCUG
modifications: 5'-(aminomodifier C2 dT)-mA mGmGmG mAmGG mAfCmG-(CH2CH2O)6-fCGfU fCGfC fCGfU mAmAfU mGmGmA fUmGfU fUfUfU mGfCfU fCfCfC fUmG (m=2'-OMe, f=2'-F); 3'-3'-T cap
What is called EC50 is the concentration at which the effect is half-maximal. Higher therefore signals lower potency in that assay. Molecule B1 returned an EC50 of 39 nM.

B2: TTA4 (ssRNA)
RNA: GGGAGGACGCGUCGCCGUAAUGGAUGUUUUGCUCCC
modifications: mGmGmG mAmGG mAfCmG-(CH2CH2O)6-fCGfU fCGfC fCGfU mAmAfU mGmGmA fUmGfU fUfUfU mGfCfU fC(C6-NH2)CfC (m=2'-OMe, f=2'-F); 3'-3'-T cap
As to B2, the EC50 came out at 20 nM.

B3: TTA8 (ssRNA)
RNA: GGGAGGACGCGUCGCCGUAAUGGAUGUUUUGCUCCC
modifications: mGmGmG mAmGmG mAfCrG-(CH2OCH2)6-fCGfU fCGfC fCGfU mAmAfU mGmGmA fUmGfU fUfUfU mGmCmU mCmCmC-(CH2)6NH2-3' (m=2'-OMe, f=2'-F, r=ribo)
B3 displayed an EC50 of 14 nM.

B4: TTA7 (ssRNA)
RNA: GGGAGGACGCGUCGCCGUAAUGGAUGUUUUGCUCCC
modifications: LGLGLG LALGmG mAfCrG-(CH2OCH2)6-fCGfU fCGfC fCGfU mAmAfU mGmGmA fUmGfU fUfUfU mGLCLU LCLCLC-(CH2)6NH2-3' (m=2'-OMe, f=2'-F, L prefix as printed, LNA inferred, r=ribo)
In turn, B4 showed an EC50 of 2 nM.

B5: TTA3 (ssRNA)
RNA: GGGAGGACGCGUCGCCGUAAUGGAUGUUUUGCUCCCUG
modifications: 5'-NH2-C6; mGmGmG mAmGG mAfCmG-(CH2CH2O)6-fCGfU fCGfC fCGfU mAmAfU mGmGmA fUmGfU fUfUfU mGfCfU fCfCfC UG (m=2'-OMe, f=2'-F); 3'-3'-T cap
In the case of B5, the EC50 amounted to 19 nM.

B6: TTA6 (ssRNA)
RNA: GGGAGGACGCGUCGCCGUAAUGGAUGUUUUGCUCCCUG
modifications: 5'-NH2-C6-O-SPO-O (PS linkage); mGmGmG mAmGG mAfCmG-(CH2CH2O)6-fCGfU fCGfC fCGfU mAmAfU mGmGmA fUmGfU fUfUfU mGfCfU fCfCfC fUmG (m=2'-OMe, f=2'-F); 3'-3'-T cap
Consider B6, for which the EC50 was determined as 14 nM.
